Source: patent publication US9931373B2, “Method of reducing cancer cell proliferation by administering recombinant alpha-fetoprotein” (priority 2005, dated 2018)

Key:
[1] = tested on: cells of B-cellular lymphoma Raji; experiment: Nude line mice implanted with Raji lymphoma cells, tumor size; type: in vivo; conditions: intraperitoneally daily for 20 days, 10 animals, listed as AFP
Excerpt: Anticancer preparations on the base of rAFP and of modified forms thereof may be used for inhibition of the growth of malignant neoplasms, such as primary or metastatic cancer of the liver, blood cancer (leucosis, myeloblastoma, lymphoma), breast cancer, prostate cancer. In order to determine the sensitivity of tumor cells to rAFP, it is possible to use different methods both in vitro and also in vivo. The method of determining activity in vitro is described in the preceding example 8. In order to determine the oncosuppressive action of preparations on the base of AFP in vivo, animal models may be used, for example Nude mice with subcutaneously or intraperitoneally implanted human lines of cancer cells, such as Raji, HepG2, LnCap, MCF-7 and others. For example, cells of B-cellular lymphoma Raji were administered subcutaneously in an amount of 1-5×10^6 per mouse. Administration of the rAFP and derivatives thereof was begun 7 days […] implantation of tumor cells intraperioneally or intravenously in an amount of 1-10 mg/kg. The physiological buffered solution (PBS) was used as a control. The size of the tumor was evaluated by daily measurements with the aid of a micrometer.

[2] = tested on: human hepatoma cells HepG2; experiment: Human hepatoma xenografts in Nude mice, rhAFP monotherapy; type: in vivo, Balb C/Nude mice
Experimental: To study tumor-suppression upon monotherapy with rhAFP we used in vivo model of human hepatoma xenografts in Nude mice. Balb C/Nude mice 8/group were implanted with 12×10^6 human hepatoma cells HepG2 s/c. rhAFP 10 mg/kg was injected i/p 9 times each 48 hrs during 16 days. Effectiveness of treatment was assessed by measuring and weighting of the tumor at the 30th day of experiment and by comparison of the quantity of mice with tumor during time of observation.

[3] = tested on: human hepatoma cells HepG2; experiment: Treatment of HepG2 cells in vitro with rhAFP; type: cell-based
Experimental: Results: Without treatment, tumors were determined at 5th-7th day after transplantation.

[4] = tested on: PHA-activated CBA thymocytes; experiment: PHA-mediated thymocyte proliferation in vitro; type: cell-based, mouse CBA; conditions: AFP alone, 24 hrs after 48 hrs PHA 1.5 μg/ml
resting mouse T-cells = experiment: Control resting splenocytes / resting T-cells treated with rhAFP/CsA; type: cell-based, mouse (CBA)
Experimental: Control resting splenocytes CBA were treated for the same time with combination of rhAFP/CysA (FIG. 10C). Cytostatic effects were assessed by monitoring of cell proliferation by [^3H]-thymidine incorporation.

[5] = tested on: embryonal fibroblasts of the lung and human retina; experiment: Growth of primary culture of human embryonal fibroblasts, [H3]-thymidine; type: cell-based; conditions: 24 hours, FIG. 7
Experimental: Proliferation of the cells was measured by a standard method of [H^3]-thymidine incorporation during the last four hours of culture and expressed in percent of the stimulation of growth in test cultures in respect of a control without AFP.
The primary culture of embryonal fibroblasts of the lung and human retina was obtained by treating with 0.25% trypsin solution corresponding tissues of 5-10 week embryos obtained after legal abortions. The cells were cultures in an RPMI-1640 medium in the presence of a 10% calf fetal serum (CFS). The cytostatic activity of AFP was measured as earlier described (Semenkova, L. 1997, Tumor Biol. 18, 261-274; Dudich E. I., et al., 1998, Tumor Biol. 198, 30-40). Cells in an amount of 4×10^4 in a 0.15 ml medium were intensively washed with a fresh to medium and placed in each cell of a 96-lune plate, then different doses of AFP were added and cultures 24 hours. Proliferation of the cells was measured by a standard method by the inclusion of [H^3]-thymidine during the last four hours of culturing.

B1: rhAFP: recombinant human alpha-fetoprotein secreted by yeast Saccharomyces cerevisiae YBS723/pKX, glycosylated, mature human AFP sequence SEQ ID NO:2 (protein, listed as Homo sapiens)
chain: TLHRNEYGIASILDSYQCTAEISLADLATIFFAQFVQEATYKEVSKMVKDALTAIEKPTGDEQSSGCLENQLPAFLEELCHEKEILEKYGHSDCCSQSEEGRHNCFLAHKKPTPASIPLFQVPEPVTSCEAYEEDRETFMNKFIYEIARRHPFLYAPTILLWAARYDKIIPSCCKAENAVECFQTKAATVTKELRESSLLNQHACAVMKNFGTRTFQAITVTKLSQKFTKVNFTEIQKLVLDVAHVHEHCCRGDVLDCLQDGEKIMSYICSQQDTLSNKITECCKLTTLERGQCIIHAENDEKPEGLSPNLNRFLGDRDFNQFSSGEKNIFLASFVHEYSRRHPQLAVSVILRVAKGYQELLEKCFQTENPLECQDKGEEELQKYIQESQALAKRSCGLFQKLGEYYLQNAFLVAYTKKAPQLTSSELMAITRKMAATAATCCQLSEDKLLACGEGAADIIIGHLCIRHEMTPVNPGVGQCCTSSYANRRPCFSSLVVDETYVPPAFSDDKFIFHKDLCQAQGVALQTMKQEFLINLVKQKPQITEEQLEAVIADFSGLLEKCCQGQEQEVCFAEEGQKLISKTRAALGV
modifications: yeast glycosylation
[1]; 0.5 mg AFP per injection
  Results (number of animals - tumor outcome): 2-stabilization
[1]; 0.5 mg AFP per injection, animals where tumor did not develop
  Results (number of animals - tumor outcome): 3-tumor did not develop
[1]; 0.5 mg AFP per injection, animals with 50% tumor inhibition
  Results (number of animals - tumor outcome): 5-50% inhibition
[1]; 1 mg AFP per injection
  Results (number of animals - tumor outcome): 2-stabilizaton
[1]; 1 mg AFP per injection, animals where tumor did not develop
  Results (number of animals - tumor outcome): 3-tumor did not develop
[1]; 1 mg AFP per injection, animals with 50% tumor inhibition
  Results (number of animals - tumor outcome): 5-50% inhibition
[1]; 2 mg AFP per injection
  Results (number of animals - tumor outcome): 2-stabilization
[1]; 2 mg AFP per injection, animals where tumor did not develop
  Results (number of animals - tumor outcome): 3-tumor did not develop
[1]; 2 mg AFP per injection, animals with 50% tumor inhibition
  Results (number of animals - tumor outcome): 5-50% inhibition
[2]; rhAFP 10 mg/kg i/p 9 times each 48 hrs during 16 days
  tumor growth in the period of treatment: tumors did not grow in the period of treatment
[2]; rhAFP 10 mg/kg i/p 9 times each 48 hrs, tumor weighed at 30th day
  inhibition of total tumor weight relatively to untreated control: 90%
[3]
  effect on HepG2 cells in vitro: dose-dependent growth suppression and apoptosis
[4]
  proliferation of PHA-stimulated thymocytes in response to AFP: distinct dose-dependent growth suppression
Resting mouse T-cells; AFP as modulator of CsA-mediated signals
  suppression of resting immune cells: does not suppress resting immune cells
Resting mouse T-cells; FIG. 10C
  effect of rhAFP on CsA treatment of resting mouse T-cells: cancellation of the cytotoxic effects of CsA treatment
[5]
  stimulating effect on cellular growth in respect to the control: 50-90%
